Results as given in patent US20220380473A1, “ANTI-GAL3 ANTIBODIES AND USES THEREOF” (TrueBinding, Inc., priority 2019, published 2022).
Entries after “also recorded” stand apart in the source; their conditions may differ.

Assays:
human Gal3 protein = assay: Epitope binding of IMT001, hGal3 peptide array dot blot and peptide ELISA; conditions: dot blot, 1 ug/ml antibody
Procedure: A peptide array containing 24 20 amino acid peptides overlapping by 10 amino acid and covering the whole human Gal3 protein sequence was synthesized (Genscript, Piscataway, N.J.) (FIG. 11A). 20 μg of each peptide was dot blotted onto a membrane. After blocking with 5% milk in PBS, the membrane was incubated with 1 ug/ml IMT001 antibody at 4C for overnight. After three times of washes, the membrane was incubated with 1:8000 diluted anti mIgG HRP antibody (Southern Biotech, Birmingham, Ala.) for one hour. After three times of washes, the membrane was incubated with Western ECL blotting substrates (Bio-Rad, Hercules, Calif.) and developed (FIG. 11B).
To further define binding epitope of IMT001 on the above peptide, 8 shorter peptides derived from it were synthesized (Genscript, Piscataway, N.J.) (FIG. 11C) and their binding by IMT001 was determined by ELISA (FIG. 11D). 96 well Elisa plate (Thermo Scientific) was coated with these peptides in PBS buffer and incubated at 4° C. for overnight. The plate was washed three times with TBST and then blocked with PBST buffer containing 2% BSA at room temperature for 1 h. IMT001 at 10 μg/mL was incubated in the coated Elisa plate at room temperature for 1 h. […] The optical density (OD) was read at 450 nm. The results were expressed as the average OD of duplicates±SD.

[1] = biological target: T1, interaction between Gal3 and TIM-3 (Mus musculus, UniProt P16110); assay: Blocking ELISA, mouse Gal3 coated plate and mouse TIM-3 Fc; assay type: binding; conditions: mGal3 coated plate, mouse TIM-3 Fc
T1 construct: purchased BioLegend (mouse Gal3); R&D systems (mouse TIM-3 Fc)
Procedure: ELISA assays were also performed to test the interaction between Gal3 and TIM-3. 96 well ELISA plates (ThermoFisher Scientific) were coated with mouse Gal3 protein (BioLegend, San Diego, Calif.) in PBS or human Gal9 protein (R&D systems) in PBS or phosphatidylserine (PS) (Sigma) in ethanol and incubated at 4° C. for overnight. The plate was washed three times with TBST and then blocked with PBS buffer containing 2% BSA at room temperature for 1 hour. In FIG. 5A, different anti Gal3 antibodies, i.e. mGal3 polyclonal antibody (R&D systems), mAb IMT001 (also described in WO 2019/023247, hereby expressly incorporated by reference in its entirety), mAb M3/38 (Thermofisher Scientific) (FIG. 5A), were added to well that has been coated with Gal3. The antibodies were incubated for 10 minutes and mouse TIM-3 Fc were then added to the plates and incubated for an additional one-hour incubation. Plates were then washed for three times and followed by incubation with anti-human-IgG-HRP (Jackson ImmunoResearch) for 1 h at room temperature. The color was developed with TMB subtract (GeneTex, Irvine, Calif.) after three time washes with TBST and the reaction was terminated with 1N HCl. The optical density (OD) was read at 450 nm. The results were expressed as the average OD of duplicates±SD. […]

hGal3 peptide = assay: Gal3 peptide library ELISA (Example 25); assay type: binding, human; conditions: peptide array ELISA
In short: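 Wells coated overnight at 4 °C with 20-mer hGal3 peptides (at least 2 μg/ml) or full-length human Gal3 (0.1 μg/ml), then blocked with 2% BSA. Anti-Gal3 hybridoma supernatants or antibodies (at least 0.1 μg/ml) bound 1 h at room temperature, detected with anti-mouse or anti-rat IgG-HRP and TMB at 450 nm.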

T1 sequence (P16110 2-264 limits assumed): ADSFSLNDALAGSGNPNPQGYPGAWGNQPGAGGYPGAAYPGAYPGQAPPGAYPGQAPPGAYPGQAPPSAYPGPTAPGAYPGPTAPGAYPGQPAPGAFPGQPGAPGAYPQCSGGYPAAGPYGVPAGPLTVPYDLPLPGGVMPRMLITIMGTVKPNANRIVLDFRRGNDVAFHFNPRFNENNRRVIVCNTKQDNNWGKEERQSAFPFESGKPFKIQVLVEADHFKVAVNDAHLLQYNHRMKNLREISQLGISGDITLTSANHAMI

block of Gal3 binding to TIM-3 [1]: blocked
B1: IMT001: anti-Gal3 monoclonal antibody (Immutics); printed as mIMT001 (IMT001), murine (antibody, V domains shown)
VH: QIQLVQSGPELKKPGETVKISCKASGYTFTNYGMNWVKQAPGKGLKWMGWINTNTGEPTYVEEFKGRFAFSLETSASTAYLQINNLKNEDTATYFCAPYDNFFAYWGQGTLVTVSA
VL: DIVITQDELSNPVTSGESVSISCRSSKSLLYKDGKTYLNWFLQRPGQSPQLLIYLMSTHASGVSDRFSGSGSGTDFTLEISRVKAEDVGVYYCQQLVDYPLTFGAGTKLELK
epitope on hGal3, 20 amino acid peptide array (human Gal3 protein): Peptides 5 and 6; also recorded: peptide_5
Gal3 peptide bound (hGal3 peptide): peptide 6
